This passage reports cAMP EC50 (assay 1) results from patent US20190185537A1 (AstraZeneca / MedImmune, published 2019).

What all share (assay): cell-based or functional assay
For one assay, the target named is human glucagon receptor (human, UniProt P47871 26-477).
Assay [1] concerns the target T1, human glucose-dependent insulinotropic peptide (gastric inhibitory polypeptide) receptor (human) (UniProt P48546).
T1 sequence (looked up): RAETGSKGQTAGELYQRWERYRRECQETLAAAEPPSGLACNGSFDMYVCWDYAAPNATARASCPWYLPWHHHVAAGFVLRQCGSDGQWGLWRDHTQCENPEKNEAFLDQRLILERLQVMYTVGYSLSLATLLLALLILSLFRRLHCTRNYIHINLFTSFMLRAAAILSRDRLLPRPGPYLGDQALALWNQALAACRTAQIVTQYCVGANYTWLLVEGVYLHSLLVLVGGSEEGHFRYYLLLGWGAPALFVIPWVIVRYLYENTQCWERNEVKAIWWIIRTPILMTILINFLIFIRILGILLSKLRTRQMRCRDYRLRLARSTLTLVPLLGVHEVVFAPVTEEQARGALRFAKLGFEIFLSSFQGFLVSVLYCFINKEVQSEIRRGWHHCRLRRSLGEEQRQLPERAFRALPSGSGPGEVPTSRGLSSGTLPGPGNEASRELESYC

The target of the next assay is human GLP-1 receptor (human, UniProt P43220 24-463).

Numbered stars: 1 amine (or outer) side, 2 acyl side, 3 side chain; on linkers, the order of the positions; unused ones are H or OH. Side chains are listed from the residue outwards. Ends that are not written are not given here. * marks the point of attachment. γGlu = O=C(O)[C@H](CCC(=O)[*:2])N[*:1]; Palmitoyl = CCCCCCCCCCCCCCCC(=O)*; Ahx = NCCCCCC(=O)O; βAla = NCCC(=O)O

Sequence of human GLP-1 receptor (P43220 24-463): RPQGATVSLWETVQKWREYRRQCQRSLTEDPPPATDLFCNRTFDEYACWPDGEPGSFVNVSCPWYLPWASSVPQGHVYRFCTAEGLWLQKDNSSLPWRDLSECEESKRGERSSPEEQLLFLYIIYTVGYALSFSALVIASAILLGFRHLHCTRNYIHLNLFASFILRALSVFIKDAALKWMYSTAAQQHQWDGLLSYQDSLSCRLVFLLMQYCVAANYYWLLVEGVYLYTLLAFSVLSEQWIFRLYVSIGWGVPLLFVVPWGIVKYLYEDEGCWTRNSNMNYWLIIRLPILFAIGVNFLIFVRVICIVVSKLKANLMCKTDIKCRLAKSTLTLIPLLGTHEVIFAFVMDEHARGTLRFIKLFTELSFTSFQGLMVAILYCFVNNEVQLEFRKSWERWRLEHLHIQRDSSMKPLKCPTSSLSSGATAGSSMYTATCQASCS
Sequence of human glucagon receptor (P47871 26-477): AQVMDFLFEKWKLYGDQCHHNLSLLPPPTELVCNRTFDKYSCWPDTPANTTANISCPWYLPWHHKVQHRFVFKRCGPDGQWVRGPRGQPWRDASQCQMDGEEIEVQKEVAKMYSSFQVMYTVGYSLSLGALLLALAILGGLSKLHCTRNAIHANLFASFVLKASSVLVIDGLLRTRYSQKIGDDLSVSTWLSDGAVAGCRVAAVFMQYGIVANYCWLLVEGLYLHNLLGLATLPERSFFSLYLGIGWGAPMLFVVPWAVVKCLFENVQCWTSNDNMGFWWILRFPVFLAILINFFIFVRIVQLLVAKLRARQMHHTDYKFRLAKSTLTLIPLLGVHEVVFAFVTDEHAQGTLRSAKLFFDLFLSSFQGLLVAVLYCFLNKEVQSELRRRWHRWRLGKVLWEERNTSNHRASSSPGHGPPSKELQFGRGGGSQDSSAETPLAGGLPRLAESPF

Take HSQGTFTSDYSEYLDSK([Ahx-Palmitoyl])RARDFVAWLERGG-OH (not fully specified) [g826]: the cAMP EC50 (assay 1) came to 0.00423 nM with human glucagon receptor, 58 nM in assay [1] and 0.0293 nM with human GLP-1 receptor.
Turning to HSQGTFTSDYSEYLDSK([Ahx-Palmitoyl])RAADFVAWLERGG-NH2 (not fully specified) [g818], the cAMP EC50 (assay 1) amounted to 0.0089 nM with human glucagon receptor, 94 nM in assay [1] and 0.021 nM in the assay with human GLP-1 receptor.

B1: g727 (peptide)
peptide: HGQGTFTSDYSEYLDSK([Ahx-Palmitoyl])RARDFVAWLERGG-OH
modifications: N-terminus assumed
SMILES: CCCCCCCCCCCCCCCC(=O)NCCCCCC(=O)NCCCC[C@H](NC(=O)[C@H](CO)NC(=O)[C@H](CC(=O)O)NC(=O)[C@H](CC(C)C)NC(=O)[C@H](Cc1ccc(O)cc1)NC(=O)[C@H](CCC(=O)O)NC(=O)[C@H](CO)NC(=O)[C@H](Cc1ccc(O)cc1)NC(=O)[C@H](CC(=O)O)NC(=O)[C@H](CO)NC(=O)[C@@H](NC(=O)[C@H](Cc1ccccc1)NC(=O)[C@@H](NC(=O)CNC(=O)[C@H](CCC(N)=O)NC(=O)CNC(=O)[C@@H](N)Cc1c[nH]cn1)[C@@H](C)O)[C@@H](C)O)C(=O)N[C@@H](CCCNC(=N)N)C(=O)N[C@@H](C)C(=O)N[C@@H](CCCNC(=N)N)C(=O)N[C@@H](CC(=O)O)C(=O)N[C@@H](Cc1ccccc1)C(=O)N[C@H](C(=O)N[C@@H](C)C(=O)N[C@@H](Cc1c[nH]c2ccccc12)C(=O)N[C@@H](CC(C)C)C(=O)N[C@@H](CCC(=O)O)C(=O)N[C@@H](CCCNC(=N)N)C(=O)NCC(=O)NCC(=O)O)C(C)C
B1: the cAMP EC50 (assay 1) with human glucagon receptor is 0.218 nM; in assay [1], 177 nM; in the assay with human GLP-1 receptor, 0.0263 nM.
In the case of HSQGTFTSDYSEYLDSK([βAla-Palmitoyl])RARDFVAWLERGG-NH2 (not fully specified) [g795], the cAMP EC50 (assay 1) with human glucagon receptor is 0.11 nM; in assay [1], 579 nM; in the assay with human GLP-1 receptor, 0.0734 nM.
In the case of HSQGTFTSDYSEYLDSK([γGlu-Palmitoyl])RARDFVAWLERGG-NH2 (not fully specified) [g772], the cAMP EC50 (assay 1) with human glucagon receptor was 0.184 nM; in assay [1] it was 1540 nM; with human GLP-1 receptor it was 0.292 nM.

B2: g725 (peptide)
peptide: HGEGTFTSDYSEYLDSK([Ahx-Palmitoyl])RAADFVAWLERGG-NH2
modifications: N-terminus assumed
SMILES: CCCCCCCCCCCCCCCC(=O)NCCCCCC(=O)NCCCC[C@H](NC(=O)[C@H](CO)NC(=O)[C@H](CC(=O)O)NC(=O)[C@H](CC(C)C)NC(=O)[C@H](Cc1ccc(O)cc1)NC(=O)[C@H](CCC(=O)O)NC(=O)[C@H](CO)NC(=O)[C@H](Cc1ccc(O)cc1)NC(=O)[C@H](CC(=O)O)NC(=O)[C@H](CO)NC(=O)[C@@H](NC(=O)[C@H](Cc1ccccc1)NC(=O)[C@@H](NC(=O)CNC(=O)[C@H](CCC(=O)O)NC(=O)CNC(=O)[C@@H](N)Cc1c[nH]cn1)[C@@H](C)O)[C@@H](C)O)C(=O)N[C@@H](CCCNC(=N)N)C(=O)N[C@@H](C)C(=O)N[C@@H](C)C(=O)N[C@@H](CC(=O)O)C(=O)N[C@@H](Cc1ccccc1)C(=O)N[C@H](C(=O)N[C@@H](C)C(=O)N[C@@H](Cc1c[nH]c2ccccc12)C(=O)N[C@@H](CC(C)C)C(=O)N[C@@H](CCC(=O)O)C(=O)N[C@@H](CCCNC(=N)N)C(=O)NCC(=O)NCC(N)=O)C(C)C
As for B2, the cAMP EC50 (assay 1) in the assay with human glucagon receptor is 59.9 nM; in assay [1], 1480 nM; with human GLP-1 receptor, 0.0252 nM.

B3: g724 (peptide)
peptide: HGEGTFTSDYSEYLDSK([Ahx-Palmitoyl])RARDFVAWLERGG-NH2
modifications: N-terminus assumed
SMILES: CCCCCCCCCCCCCCCC(=O)NCCCCCC(=O)NCCCC[C@H](NC(=O)[C@H](CO)NC(=O)[C@H](CC(=O)O)NC(=O)[C@H](CC(C)C)NC(=O)[C@H](Cc1ccc(O)cc1)NC(=O)[C@H](CCC(=O)O)NC(=O)[C@H](CO)NC(=O)[C@H](Cc1ccc(O)cc1)NC(=O)[C@H](CC(=O)O)NC(=O)[C@H](CO)NC(=O)[C@@H](NC(=O)[C@H](Cc1ccccc1)NC(=O)[C@@H](NC(=O)CNC(=O)[C@H](CCC(=O)O)NC(=O)CNC(=O)[C@@H](N)Cc1c[nH]cn1)[C@@H](C)O)[C@@H](C)O)C(=O)N[C@@H](CCCNC(=N)N)C(=O)N[C@@H](C)C(=O)N[C@@H](CCCNC(=N)N)C(=O)N[C@@H](CC(=O)O)C(=O)N[C@@H](Cc1ccccc1)C(=O)N[C@H](C(=O)N[C@@H](C)C(=O)N[C@@H](Cc1c[nH]c2ccccc12)C(=O)N[C@@H](CC(C)C)C(=O)N[C@@H](CCC(=O)O)C(=O)N[C@@H](CCCNC(=N)N)C(=O)NCC(=O)NCC(N)=O)C(C)C
For the molecule B3, the cAMP EC50 (assay 1) came out at 30.9 nM in the assay with human glucagon receptor, 933 nM in assay [1] and 0.019 nM in the assay with human GLP-1 receptor.

B4: g721 (peptide)
peptide: HGQGTFTSDYSEYLDSK([γGlu-Palmitoyl])RARDFVAWLERGG-NH2
modifications: N-terminus assumed
SMILES: CCCCCCCCCCCCCCCC(=O)N[C@@H](CCC(=O)NCCCC[C@H](NC(=O)[C@H](CO)NC(=O)[C@H](CC(=O)O)NC(=O)[C@H](CC(C)C)NC(=O)[C@H](Cc1ccc(O)cc1)NC(=O)[C@H](CCC(=O)O)NC(=O)[C@H](CO)NC(=O)[C@H](Cc1ccc(O)cc1)NC(=O)[C@H](CC(=O)O)NC(=O)[C@H](CO)NC(=O)[C@@H](NC(=O)[C@H](Cc1ccccc1)NC(=O)[C@@H](NC(=O)CNC(=O)[C@H](CCC(N)=O)NC(=O)CNC(=O)[C@@H](N)Cc1c[nH]cn1)[C@@H](C)O)[C@@H](C)O)C(=O)N[C@@H](CCCNC(=N)N)C(=O)N[C@@H](C)C(=O)N[C@@H](CCCNC(=N)N)C(=O)N[C@@H](CC(=O)O)C(=O)N[C@@H](Cc1ccccc1)C(=O)N[C@H](C(=O)N[C@@H](C)C(=O)N[C@@H](Cc1c[nH]c2ccccc12)C(=O)N[C@@H](CC(C)C)C(=O)N[C@@H](CCC(=O)O)C(=O)N[C@@H](CCCNC(=N)N)C(=O)NCC(=O)NCC(N)=O)C(C)C)C(=O)O
On to B4, for which the cAMP EC50 (assay 1) in the assay with human glucagon receptor was determined as 3.23 nM; in assay [1] it was 979 nM; in the assay with human GLP-1 receptor it was 0.411 nM.
Consider HSQGTFTSDYSEYLDSK([Ahx-Palmitoyl])RARDFVAWLERGG-NH2 (not fully specified) [g794], for which the cAMP EC50 (assay 1) with human glucagon receptor worked out at 0.00469 nM; in assay [1], 32.2 nM; in the assay with human GLP-1 receptor it was 0.0157 nM.
